Experimental data taken from patent US20230107890A1 (HOBER BIOTECH, published 2023).
Groups on a side chain read outwards from the residue. No end group written: not given here. *: point of attachment. DOTA = O=C(O)CN1CCN(CC(=O)O)CCN(CC(=O)*)CCN(CC(=O)O)CC1

B1: MG-DEAVDANS-ADAPT6-(SSSG)3-ABD035-GSSC (designed binder)
chain: MGDEAVDANSLAAAKETALYHLDRLGVADAYKDLIDKAKTVEGVKARYFEILHALPSSSGSSSGSSSGLAEAKVLANRELDKYGVSDFYKRLINKAKTVEGVEALKLHILAALPGSSC
B2: MG-DEAVDANS-ABD35-(SSSG)5-ADAPT6-GSSC (designed binder)
chain: MGDEAVDANSLAEAKVLANRELDKYGVSDFYKRLINKAKTVEGVEALKLHILAALPSSSGSSSGSSSGSSSGSSSGLAAAKETALYHLDRLGVADAYKDLIDKAKTVEGVKARYFEILHALPGSSC
notes: also called ABD035-(SSSG)5-ADAPT6
B3: MG-DEAVDANS-ABD035-(SSSG)3-ADAPT6-GSSC (designed binder)
chain: MGDEAVDANSLAEAKVLANRELDKYGVSDFYKRLINKAKTVEGVEALKLHILAALPSSSGSSSGSSSGLAAAKETALYHLDRLGVADAYKDLIDKAKTVEGVKARYFEILHALPGSSC
notes: also called ABD035-ADAPT6
B4: MG-DEAVDANS-ADAPT6-(SSSG)5-ABD35-GSSC (designed binder)
chain: MGDEAVDANSLAAAKETALYHLDRLGVADAYKDLIDKAKTVEGVKARYFEILHALPSSSGSSSGSSSGSSSGSSSGLAEAKVLANRELDKYGVSDFYKRLINKAKTVEGVEALKLHILAALPGSSC
notes: also called ADAPT6-(SSSG)5-ABD035
B5: MG-DEAVDANS-ADAPT6-GSSC-HPEM-125I (designed binder)
chain: MGDEAVDANSLAAAKETALYHLDRLGVADAYKDLIDKAKTVEGVKARYFEILHALPGSSC
modifications: C-terminal cysteine coupled to 125I-labelled ((4-hydroxyphenyl)ethyl)maleimide (HPEM)
notes: Radioiodinated form of the non-fused control
B6: MG-DEAVDANS-ABD035-(SSSG)3-ADAPT6-GSSC-HPEM-125I (designed binder)
chain: B3 chain
modifications: C-terminal cysteine coupled to 125I-labelled ((4-hydroxyphenyl)ethyl)maleimide (HPEM)
B7: MG-DEAVDANS-ADAPT6-(SSSG)3-ABD035-GSSC-HPEM-125I (designed binder)
chain: B1 chain
modifications: C-terminal cysteine coupled to 125I-labelled ((4-hydroxyphenyl)ethyl)maleimide (HPEM)
notes: also called Inventive 2
B8: MG-DEAVDANS-ADAPT6-GSSC-DOTA-177Lu (designed binder)
chain: MGDEAVDANSLAAAKETALYHLDRLGVADAYKDLIDKAKTVEGVKARYFEILHALPGSSC([maleimide-DOTA])
modifications: also: 177Lu chelated by DOTA
B9: MG-DEAVDANS-ABD035-(SSSG)3-ADAPT6-GSSC-DOTA-177Lu (designed binder)
chain: B3 chain
modifications: C-terminal cysteine coupled to maleimide-DOTA chelating 177Lu
B10: MG-DEAVDANS-ADAPT6-(SSSG)3-ABD035-GSSC-DOTA-177Lu (designed binder)
chain: B1 chain
modifications: C-terminal cysteine coupled to maleimide-DOTA chelating 177Lu
notes: also called Inventive 1
B11: MG-DEAVDANS-ADAPT6-GSSC (designed binder)
chain: B5 chain
notes: also called non-fused ADAPT6; unfused control
B12: MGDEAVDANS-ADAPTNeg-(SSSG)3-ABD035-GSSC (designed binder)
chain: MGDEAVDANSLAEAKVLANRELDKYGVADAYKNLINNAKTVEGVKARIDEILAALPSSSGSSSGSSSGLAEAKVLANRELDKYGVSDFYKRLINKAKTVEGVEALKLHILAALPGSSC

Target: T1, Human Serum Albumin (HSA) (human, UniProt P02768 25-609)
Assay: SPR (Biacore T200), HSA immobilised on CM5 chip
Experimental: (§1) Target binding analysis was performed on a Biacore T200 system (GE Healthcare, Stockholm, Sweden) by injecting analytes over a CM5 chip immobilized with Murine Serum Albumin (MSA), Human Serum Albumin (HSA) and Human Epidermal growth factor receptor 2 (HER2) to a response level of […] each. Experimental parameters have been described previously (Garousi 2019).

T1 sequence (P02768 25-609 limits assumed): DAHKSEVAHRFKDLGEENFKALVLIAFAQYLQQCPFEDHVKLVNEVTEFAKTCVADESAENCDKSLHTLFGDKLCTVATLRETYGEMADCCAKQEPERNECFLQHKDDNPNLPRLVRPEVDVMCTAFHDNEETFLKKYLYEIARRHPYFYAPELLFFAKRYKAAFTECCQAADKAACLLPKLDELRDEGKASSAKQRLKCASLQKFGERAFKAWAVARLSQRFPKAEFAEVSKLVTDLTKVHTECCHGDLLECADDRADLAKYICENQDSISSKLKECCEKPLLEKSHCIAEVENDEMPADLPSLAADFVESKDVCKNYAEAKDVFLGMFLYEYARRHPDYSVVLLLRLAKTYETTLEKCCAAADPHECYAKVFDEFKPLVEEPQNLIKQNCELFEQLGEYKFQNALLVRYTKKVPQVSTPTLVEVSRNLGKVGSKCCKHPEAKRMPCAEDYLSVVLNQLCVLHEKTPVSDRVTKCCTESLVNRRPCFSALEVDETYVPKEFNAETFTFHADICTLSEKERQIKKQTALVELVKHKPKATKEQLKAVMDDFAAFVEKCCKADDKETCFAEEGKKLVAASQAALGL

Row | Binder | Kd [nM]
1 | B1 | 0.0498
2 | B2 | 0.052
3 | B3 | 0.0521
4 | B4 | 0.0538

Target: T2, Murine Serum Albumin (MSA) (murine, UniProt P07724 25-608)
Assay: SPR (Biacore T200), MSA immobilised on CM5 chip
Experimental: as §1

Row | Binder | Kd [nM]
5 | B1 | 1.76
6 | B3 | 1.83
7 | B4 | 1.8

Target: T3, Human Epidermal growth factor receptor 2 (HER2), immobilised on a CM5 chip (human, UniProt P04626 23-652, limits assumed)
Assay: SPR (Biacore T200), HER2 immobilised on CM5 chip
Experimental: as §1

Row | Binder | Kd [nM]
8 | B1 | 4.67
9 | B2 | 4.32
10 | B3 | 5.2
11 | B4 | 4.45

Target: T4, HER2 on living HER2-expressing cells (SKOV-3, BT-474) (human, UniProt P04626 23-1255)
T4 construct: whole, on cells; also called HER2 receptors in cells; HER2 on living cells
Assay: LigandTracer, living SKOV-3 cells; KD2 (weaker of two interactions)
Experimental: (§2) Cell-lines were purchased from American Type Culture Collection (ATCC, Manassas, Va.). […] The affinity of radiolabeled conjugates binding to living HER2-expressing SKOV-3 cells was determined using LigandTracer (Ridgeview Instruments AB) by an established method as described previously (Tolmachev 2014).

Row | Binder | Kd [nM]
12 | B5 | 27
13 | B6 | 28
14 | B7 | 36
15 | B8 | 41
16 | B9 | 38
17 | B10 | 33

Target: T4, HER2 on living HER2-expressing cells …
Assay: LigandTracer, living SKOV-3 cells; KD1 (stronger of two interactions)
Experimental: as §2

Row | Binder | Kd [nM]
18 | B5 | 0.41
19 | B6 | 0.15
20 | B7 | 0.6
21 | B8 | 0.337
22 | B9 | 0.432
23 | B10 | 0.485

Target: T1, Human Serum Albumin (HSA)
Assay: SPR, HSA immobilised on CM5 chip, analyte injected at 3.125-50 nM
Experimental: (§3) In the graphs of FIG. 4, the X axis represents time [s] and the Y axis represents Response Unit [RU].
as §1

Row | Binder | binding result
24 | B11 | no binding (tested: 50 nM)

Target: T2, Murine Serum Albumin (MSA)
Assay: SPR, MSA immobilised on CM5 chip, analyte injected at 3.125-50 nM
Experimental: as §3, §1

Row | Binder | binding result
25 | B11 | no binding (tested: 50 nM)

Target: T3, Human Epidermal growth factor receptor …
Assay: SPR, HER2 immobilised on CM5 chip, analyte 3.125-50 nM with 10x excess HSA
Experimental: as §3, §1

Row | Binder | binding result
26 | B11 | binds

Target: T3, Human Epidermal growth factor receptor …
Assay: SPR, successive injections without regeneration, on HER2; concentrations not given

Row | Binder | binding result
27 | B12 | no binding
